# Target: T1, Fur (ferric uptake regulator) (Salmonella enterica (strain for cloning not stated; SL1344/SV5015 used in the paper)) (UniProt A0A0H3NJ13)
# T1 sequence: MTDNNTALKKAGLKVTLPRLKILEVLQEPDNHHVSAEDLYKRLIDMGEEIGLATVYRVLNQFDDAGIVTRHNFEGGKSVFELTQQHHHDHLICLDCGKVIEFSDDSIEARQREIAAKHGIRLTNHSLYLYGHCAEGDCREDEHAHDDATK
# Experiment: EMSA
# Conditions: EMSA: 10 mM Bis-Tris/borate pH 7.5, 5% glycerol, 1 mM MgCl2, 40 mM KCl, 100 ug/ml BSA, 0.2 mg/ml salmon sperm DNA, 100 uM MnCl2, 20 nM probe, 10 min 37 C …
Substance,binding,Kd [nM]
AGTTATCTGCGGCAGGACGCTGATGACTATTACTTACAAAGGTTACATTTTCCATATTATCCCTTTGTTGATGTTATTTTAATGTTCCTTACTGGTATCCTACTGAAAAAATCTGAGTTGTAAATGCTCTTTATTAGCGTGTGTTGGCAATGGTCTGATTGTTACACCAAAAGAACCCAAATTTGGGTAATTTATCTACAGTAGTTTAAGCCCCAATGGGGATGATGGTTCTTTTAATATGTGTTGAGACGCATTATACA (double strand) [FrgB],no binding,
AGTTATCTGCGGCAGGACGCTGATGACTATTACTTACAAAGGTTACATTTTCCATATTATCCCTTTGTTGATGTTATTTTAATGTTCCTTACTGGTATCCTACTGA (double strand) [FrgC],no binding,
FrgA (PhilD),,4.5

# — publication PMC3089636
